Data from patent US20240383993A1 (LANOVA MEDICINES, published 2024).

T1: His-tagged cynomolgus 4-1BB protein (cynomolgus, UniProt A9YYE7 24-186)
T1 construct: Coated on ELISA plates at 2 µg/ml; also called Cyno 4-1BB; soluble cynomolgus 4-1BB; not shown: His tag
T1 sequence: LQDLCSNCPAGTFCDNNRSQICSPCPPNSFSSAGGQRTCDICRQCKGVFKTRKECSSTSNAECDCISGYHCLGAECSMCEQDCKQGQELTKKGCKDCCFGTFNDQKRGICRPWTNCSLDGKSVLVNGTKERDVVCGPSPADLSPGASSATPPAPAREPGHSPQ


Tests used:
[1] = target: T2, human 4-1BB expressed on cells (human, UniProt Q07011 24-255); test: cell-based or functional assay
[2] = target: T2, human 4-1BB expressed on cells; test: flow cytometry competition with biotinylated human 4-1BB ligand on CHO-K1/human 4-1BB cells
Protocol: CHO-K1 cells overexpressing human 4-1BB were incubated with biotinylated human 4-1BB ligand (0.3 μg/ml) in the presence of serial diluted anti-41BB nanobodies for 1 h at 4° C. with Ref mAb as the reference antibody. Then, cells were incubated with Alexa Fluor 633-conjugated streptavidin. Binding was measured with an Agilent flow cytometer. As shown in FIG. 2 and Table 3, all of the tested nanobodies could block 4-1BB ligand binding to 4-1BB in a concentration-dependent manner while Ref mAb had no such effect.

[3] = target: T3, His-tagged human 4-1BB protein (human, UniProt Q07011 24-186); test: ELISA, coated His-tagged 4-1BB, anti-human IgG-HRP
T3 construct: Coated on ELISA plates at 2 µg/ml; also called hu4-1BB; soluble human 4-1BB; not shown: His tag
Protocol: (§1) His-tagged 4-1BB was coated at 2 μg/ml overnight and then blocked by 2% BSA in PBS. Serially diluted anti-4-1BB nanobodies were incubated with the coated antigen for 1h at room temperature with a reference antibody “Ref mAb”. The resulting plates were washed with PBS/T and incubated with goat anti-human IgG-HRP for 1 h at room temperature. The plates were developed with TMB substrate and analyzed by spectrophotometer at OD 450 nm.

[4] = target: T1, His-tagged cynomolgus 4-1BB protein; test: ELISA, coated His-tagged 4-1BB, anti-human IgG-HRP
Protocol: as §1

[5] = target: T2, human 4-1BB expressed on cells; test: flow cytometry on CHO-K1/hu4-1BB cells, anti-human Fc-Alexa Fluor 633
Protocol: (§2) To evaluate the antigen binding property in a cell-based setting, the 4-1BB humanized nanobodies were analyzed for their binding to 4-1BB overexpressed on CHO-K1 cells by FACS.
(§3) Briefly, CHO-K1 cells overexpressing human 4-1BB or cynomolgus 4-1BB were incubated with the serial diluted anti-4-1BB nanobodies for 30 min at 4° C. Then, the cells were incubated with Alexa Fluor 633-conjugated anti-human Fc secondary antibody. Binding was measured with an Agilent flow cytometer.

[6] = target: T4, cynomolgus 4-1BB overexpressed on CHO-K1 cells (cynomolgus, UniProt A9YYE7 24-254); test: flow cytometry on CHO-K1/Cyno-41BB cells, anti-human Fc-Alexa Fluor 633
T4 construct: whole, on cells; also called CHO-K1/Cyno-41BB; cell surface cyno 4-1BB
Protocol: as §2, §3

T4 sequence (A9YYE7 entry or part of it): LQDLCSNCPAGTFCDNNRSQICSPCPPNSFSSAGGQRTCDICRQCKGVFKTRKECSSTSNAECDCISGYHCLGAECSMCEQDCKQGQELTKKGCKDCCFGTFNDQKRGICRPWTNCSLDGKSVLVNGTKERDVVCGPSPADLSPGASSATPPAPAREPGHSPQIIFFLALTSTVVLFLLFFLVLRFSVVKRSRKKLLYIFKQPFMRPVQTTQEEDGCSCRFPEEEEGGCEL
T2 sequence (Q07011 24-255): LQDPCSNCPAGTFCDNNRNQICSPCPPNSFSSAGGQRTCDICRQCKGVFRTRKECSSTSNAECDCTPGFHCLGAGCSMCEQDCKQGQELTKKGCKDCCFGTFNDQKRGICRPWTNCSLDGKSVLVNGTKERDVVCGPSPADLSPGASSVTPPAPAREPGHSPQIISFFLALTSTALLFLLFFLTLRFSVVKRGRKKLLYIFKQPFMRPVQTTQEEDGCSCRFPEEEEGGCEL

Row | Binder | EC50 (nM) in Jurkat-41BB NFκB reporter assay [1] | IC50 [2] | EC50 [3] | EC50 [4] | EC50 [5] | Max (MFI) [5] | EC50 [6] | Max (MFI) [6]
1 | VV02-1LP-417 (Fc fusion, Llama nanobody tested as fusion with human IgG1 Fc (N297A); not shown: Human IgG1 Fc fragment with N297A, plus the hinge or linker joining it to the nanobody) VHH: QLQLVESGGGLVQPGGSLRLSCAASGFALDYSAIGWFRQAPGKEREGVLCISSSGDVTIYADSVKGRFTISRDNAKNTVYLQMNSLKPEDTAVYYCVAPRICSTYSSDDYWGQGTQVTVSS | 0.081 nM | 2.05 nM | 11.1 nM | – | – | – | – | –
2 | VV02-1LP-288 (Fc fusion, not shown: a dimerising Fc or GST; small tags and cut ends, Llama nanobody tested as fusion with human IgG1 Fc (N297A)) VHH: EVQVVESGGGLVQPGGSLRLSCAASGSSLDYSAIGWFRQAPGKEREGVLCISSSGDVTIYADSVKGRFTISRDNAKNTVYLQMNSLKPEDTAVYYCVAPRICSTYSSDDYWGQGTQVTVSS | 0.052 nM | 2.57 nM | > 30 nM | – | – | – | – | –
3 | VV02-1SP (1)-73 (Fc fusion, not shown: a dimerising Fc or GST; small tags and cut ends, Llama nanobody tested as fusion with human IgG1 Fc (N297A)) VHH: EVDLVESGGGLVQPGGSLRLSCAVSGFTFSNSAMSWARQAPGKEFEWVSSIYSDGKTYYVDSVKGRFTISRDNAKNTVYLQMSSLKPEDTAVYYCATWKTLRVGVWDESDYWGQGTQVTVSS | 0.01 nM | 0.573 nM | > 30 nM | 0.11 nM | – | – | – | –
4 | VV02-1SP (1)-73 huNb_3_2 (Fc fusion, detection by anti-human Fc; not shown: Human Fc part, implied only by the anti-human Fc secondary antibody) VHH: EVQLVESGGGLVQPGGSLRLSCAASGFTFSSSAMSWARQAPGKGFEWVSSIYSSGKTYYVESVKGRFTISRDNAKNSLYLQMSSLRAEDTAVYYCATWKTLRVGVWDESDYWGQGTLVTVSS | – | – | – | – | 0.52 nM | 8560 MFI | – | –
5 | VV02-1SP (1)-73 huNb_2_2 (Fc fusion, detection by anti-human Fc; not shown: Fc part, implied only by the anti-human Fc secondary antibody) VHH: EVQLVESGGGLIQPGGSLRLSCAASGFTFSSSAMSWARQAPGKEFEWVSSIYSSGKTYYVESVKGRFTISRDNAKNTLYLQMSSLRAEDTAVYYCATWKTLRVGVWDESDYWGQGTQVTVSS | – | – | – | – | 0.37 nM | 9270 MFI | – | –
6 | VV02-1SP (1)-73 huNb_1_2 (Fc fusion, detection by anti-human Fc; not shown: Fc part, implied only by the anti-human Fc secondary antibody) VHH: EVQLLESGGGLVQPGGSLRLSCAASGFTFSSSAMSWARQAPGKELEWVSSIYSSGKTYYVESVKGRFTISRDNAKNTLYLQMSSLRAEDTAVYYCATWKTLRVGVWDESDYWGQGTLVTVSS | – | – | – | – | 0.8 nM | 5240 MFI | – | –
7 | VV02-1SP (1)-73 huNb_1_3 (Fc fusion, detection by anti-human Fc; not shown: Fc part, implied only by the anti-human Fc secondary antibody) VHH: EVDLVESGGGLVQPGGSLRLSCAVSGFTFSSSAMSWARQAPGKEFEWVSSIYSSGKTYYVESVKGRFTISRDNAKNTVYLQMSSLRPEDTAVYYCATWKTLRVGVWDESDYWGQGTLVTVSS | – | – | – | – | 0.61 nM | – | – | –
8 | VV02-1SP (1)-73 huNb_3_3 (Fc fusion, detection by anti-human Fc; not shown: Human Fc part, implied only by the anti-human Fc secondary antibody) VHH: EVQLVESGGGLVQPGGSLRLSCAVSGFTFSSSAMSWARQAPGKEFEWVSSIYSSGKTYYVESVKGRFTISRDNAKNSVYLQMSSLRPEDTAVYYCATWKTLRVGVWDESDYWGQGTLVTVSS | – | – | – | – | 0.66 nM | 9630 MFI | – | –
9 | VV02-1SP (1)-73 huNb_2_3 (Fc fusion, detection by anti-human Fc; not shown: Fc part, implied only by the anti-human Fc secondary antibody) VHH: EVQLVESGGGLVQPGGSLRLSCAVSGFTFSSSAMSWARQAPGKEFEWVSSIYSSGKTYYVESVKGRFTISRDNAKNTVYLQMSSLRPEDTAVYYCATWKTLRVGVWDESDYWGQGTQVTVSS | – | – | – | – | 0.49 nM | – | – | –
10 | VV02-1LP-317 (Fc fusion, not shown: a dimerising Fc or GST; small tags and cut ends, Llama nanobody tested as fusion with human IgG1 Fc (N297A)) VHH: EVDLVESGGGLVQPGGSLRLSCAASGFTFSRSAMSWARQAPGKGFEWVSGIYSGGSTYYVDSVEGRFTISRDNAKNTVYLQMNSLKPEDTAVYYCATWGSQQIGVWHEDDYWGQGTQVTVSS | 0.031 nM | 1.42 nM | > 30 nM | 29.3 nM | – | – | – | –
11 | VV02-1SP (1)-73 huNb_3_1 (Fc fusion, detection by anti-human Fc; not shown: Fc part, implied only by the anti-human Fc secondary antibody) VHH: EVQLVESGGGLVQPGGSLRLSCAASGFTFSSSAMSWARQAPGKGFEWVASIYSSGKTYYVESVKGRFTISRDNAKNSLYLQMNSLRAEDTAVYYCARWKTLRVGVWDESDYWGQGTLVTVSS | – | – | – | – | 27.4 nM | 3700 MFI | – | –
12 | VV02-2LP-13 (Fc fusion, Llama nanobody tested as fusion with human IgG1 Fc (N297A); not shown: Human IgG1 Fc fragment with N297A, plus the hinge or linker joining it to the nanobody) VHH: AVQLVESGGGLVQPGGSLRLSCAASGFTFSSYAMSWARQVPGKGFEWVAYIYSDGSTYYADSVKGRFTISRDNAKDTVYLHMNSLKFEDMAVYYCATWRSQQVGRWDEYDHWGQGTQVTVSS | 0.036 nM | 0.995 nM | > 30 nM | 4.19 nM | – | – | – | –
13 | VV02-1SP (1)-358 (Fc fusion, not shown: a dimerising Fc or GST; small tags and cut ends, Llama nanobody tested as fusion with human IgG1 Fc (N297A)) VHH: EVQLVESGGGLVQPGGSLMISCAASGFTFSSSAMSWARQVPGKGFEWVAYIYSDGSTYYADSVKGRFTISRDNAKDTVYLHMNSLKFEDMAVYYCATWRSQQVGRWDKYDYWGQGTQVTVSS | 0.004 nM | 0.988 nM | > 30 nM | 0.11 nM | – | – | – | –
14 | VV02-1SP (1)-55 (Fc fusion, not shown: a dimerising Fc or GST; small tags and cut ends, Llama nanobody tested as fusion with human IgG1 Fc (N297A)) VHH: EVQLVESGGGLVQPGGSLRLSCAASGFTFSSSAMSWARQVPGKGFEWVAYIYSDGSTYYADSVKGRFTISRDNAKDTVYLHMNSLKFEDMAVYYCATWRSQQVGRWDEYDYWGQGIQVTVSS | 0.023 nM | 0.573 nM | > 30 nM | 1.87 nM | – | – | – | –
15 | VV02-3LP-83 (Fc fusion, Llama nanobody tested as fusion with human IgG1 Fc (N297A); not shown: Human IgG1 Fc fragment with N297A, plus the hinge or linker joining it to the nanobody) VHH: EVDLVESGGGLVQPGGSLRLSCAASGFTFRSYAMSWARQVPGKGFEWVAYIYSDGSTYYADSVKGRFTISRDNAKDTVYLHMNSLKFEDMAVYYCATWRSQQVGRWDEYDHWGQGTQVTVSS | 0.014 nM | 0.682 nM | > 30 nM | 2.03 nM | – | – | – | –
16 | VV02-3LP-142 (Fc fusion, Llama nanobody tested as fusion with human IgG1 Fc (N297A); not shown: Human IgG1 Fc fragment with N297A, plus the hinge or linker joining it to the nanobody) VHH: AVQLVESGGGLVQRGGSLKLSCVGSGFDFSDHAMSWARQVPGKGFEWVAYIYSDGSTYYADSVKGRFTISRDNAKDTVYLHMNSLKFEDMAVYYCATWRSQQVGRWDEYDHWGQGTQVTVSS | 0.014 nM | 0.923 nM | > 30 nM | 18.2 nM | – | – | – | –
17 | VV02-1LP-263 huNb_2_3 (Fc fusion, not shown: a dimerising Fc or GST, detection by anti-human Fc) VHH: EVQLVESGGGLVQPGGSLRLSCAASGFTFSSSAMSWARQAPGKGFEWVSGIYSGGSTYYTESVKDRFTISRDNAKNTVYLQMNSLKPEDTAVYYCATWGTLRFGVWAEYDHWGQGTLVTVSS | – | – | – | – | 0.11 nM | 39100 MFI | 0.37 nM | 130000 MFI
18 | VV02-1LP-263 huNb_1_3 (Fc fusion, not shown: a dimerising Fc or GST, detection by anti-human Fc) VHH: EVQLLESGGGLVQPGGSLRLSCAASGFTFSSSAMSWARQTPGKGFEWVSGIYSGGSTYYTESVKDRFTISRDNSKNTVYLQMNSLKPEDTAVYYCATWGTLRFGVWAEYDHWGQGTQVTVSS | – | – | – | – | 0.11 nM | 42100 MFI | 0.33 nM | 134000 MFI
19 | VV02-1LP-263 huNb_3_2 (Fc fusion, not shown: a dimerising Fc or GST, detection by anti-human Fc) VHH: QVQLVESGGGLVKPGGSLRLSCAASGFTFSSSAMSWARQAPGKGFEWVSGIYSGGSTYYTESVKDRFTISRDNAKNSLYLQMNSLRPEDTAVYYCATWGTLRFGVWAEYDHWGQGTQVTVSS | – | – | – | – | 0.14 nM | 38000 MFI | 0.7 nM | 128000 MFI
20 | VV02-1LP-263 huNb_1_2 (Fc fusion, not shown: a dimerising Fc or GST, detection by anti-human Fc) VHH: EVQLLESGGGLVQPGGSLRLSCAASGFTFSSSAMSWARQAPGKGLEWVSGIYSGGSTYYTESVKDRFTISRDNSKNTVYLQMNSLKPEDTAVYYCATWGTLRFGVWAEYDHWGQGTLVTVSS | – | – | – | – | 0.17 nM | 23500 MFI | 0.69 nM | 99600 MFI
21 | VV02-1LP-263 huNb_3_3 (Fc fusion, detection by anti-human Fc; not shown: Fc part, implied only by the anti-human Fc secondary antibody) VHH: QVQLVESGGGLVQPGGSLRLSCAASGFTFSSSAMSWARQAPGKGFEWVSGIYSGGSTYYTESVKDRFTISRDNAKNSVYLQMNSLKPEDTAVYYCATWGTLRFGVWAEYDHWGQGTQVTVSS | – | – | – | – | 0.12 nM | 40300 MFI | 0.7 nM | 149000 MFI
22 | VV02-1LP-263 huNb_2_2 (Fc fusion, not shown: a dimerising Fc or GST, detection by anti-human Fc) VHH: EVQLVESGGGLVQPGGSLRLSCAASGFTFSSSAMSWARQAPGKGLEWVSGIYSGGSTYYTESVKDRFTISRDNAKNTLYLQMNSLRPEDTAVYYCATWGTLRFGVWAEYDHWGQGTLVTVSS | – | – | – | – | 0.19 nM | 23400 MFI | 0.64 nM | 86400 MFI
